Here are results for one protein from publication PMC11303537, “Deciphering the allosteric regulation of mycobacterial inosine-5′-monophosphate dehydrogenase” (Nature Communications, 2024).

The data set deals with the molecule itself. In words: cryo-EM structure; single-particle cryo-EM, MsmIMPDH octamer ~2.5-3.5 µM, 50 mM HEPES pH 7.4, 200 mM KCl, 5 mM DTT, 2 mM MgCl2 excess over nucleotides; datasets apo, ATP, ATP+IMP, ATP+GTP+IMP, ATP+ppGpp+IMP.

“And” between values parts separate entries of the source, which are not always exact repeats. Equal entries are not always repeated.

By stoichiometry N is commonly meant a count of units in the complex or per binding partner.

B1: inosine-5′-monophosphate dehydrogenase from Mycobacterium smegmatis (enzyme, Mycobacterium smegmatis MC2 155, UniProt A0QSU3 1-513, looked up)
chain: MSIAESSVPIAVPVPTGGDDPTKVAMLGLTFDDVLLLPAASDVVPATADTSSQLTKRIRLRVPLVSSAMDTVTESRMAIAMARAGGMGVLHRNLPVAEQAGQVETVKRSEAGMVTDPVTCSPDNTLAEVDAMCARFRISGLPVVDDTGELVGIITNRDMRFEVDQSKPVSEVMTKAPLITAKEGVSAEAALGLLRRHKIEKLPIVDGHGKLTGLITVKDFVKTEQFPLSTKDSDGRLLVGAAVGVGDDAWTRAMTLVDAGVDVLIVDTAHAHNRGVLDMVSRLKQAVGERVDVVGGNVATRAAAAALVEAGADAVKVGVGPGSICTTRVVAGVGAPQITAILEAVAACKPYGVPVIADGGLQYSGDIAKALAAGASTAMLGSLLAGTAESPGELIFVNGKQFKSYRGMGSLGAMQGRGAAKSYSKDRYFQDDVLSEDKLVPEGIEGRVPFRGPLGTVIHQLTGGLRAAMGYTGSATIEQLQQAQFVQITAAGLKESHPHDITMTVEAPNYYTR
notes: also called MsmIMPDH; MsmGuaB2; source: E. coli BL21 RIL LOBSTR, purified (HisTrap, TEV cleavage, second HisTrap, HiTrap Q, Superdex 200); not shown: His6, N-terminal, cleaved
In the case of B1, the “stoichiometry N” value is 8 and 4.
